From article doi:10.1101/2021.02.28.433298
Where two headings read alike, the source gives them in different places.

How the values were obtained:
CytR DBD [1] = molecular target: T1, CytR DBD (Escherichia coli, UniProt P0ACN7 1-67); assay: fluorescence anisotropy
T1 sequence: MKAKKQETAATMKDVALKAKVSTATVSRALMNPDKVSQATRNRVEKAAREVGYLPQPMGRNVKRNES

CytR DBD [2] = molecular target: T1, CytR DBD; assay: fluorescence anisotropy; remark: listed apart in the source
CytR DBD [3] = molecular target: T1, CytR DBD; assay: NMR
CytR DBD [4] = molecular target: T1, CytR DBD; assay: fluorescence anisotropy; remark: listed apart in the source

B1: udp left half-site (dsDNA)
DNA 1: ATTTATGCAACGCA
DNA 2: TGCGTTGCATAAAT
With B1 the Kd (CytR DBD [1]) was 9.6 ± 1.8 µM.

B2: nonspecific 30 bp (dsDNA)
DNA 1: GTACAGAACATGTCTAAGCATGCTGGGGAC
DNA 2: GTCCCCAGCATGCTTAGACATGTTCTGTAC
B2 showed a Kd (CytR DBD [2]) of 1.81 µM.

B3: udp full-site operator (CytO) (dsDNA)
DNA 1: GTAAATTTATGCAACGCATTTGCGTCATGGTG
DNA 2: CACCATGACGCAAATGCGTTGCATAAATTTAC
B3: binds (CytR DBD [3]).

B4: nonspecific 14 bp (dsDNA)
DNA 1: AGCATGCTGGGGAC
DNA 2: GTCCCCAGCATGCT
Binder B4 has a Kd (CytR DBD [4]) of 5.7 µM.
